Biological target: LukAB heterodimer (Staphylococcus aureus)
Test: ELISA, immobilized LukAB, anti-human IgG-peroxidase detection

B1: SA-13 (antibody, V domains shown)
VH: QVQLVESGGGLVRPGGSLRLSCAASGFTFSEYYMSWIRQAPGKGLEWLSYISSSGTTIGHADSLKGRFTISRDNARNSLFLQMNSLRAEDTAVYYCARDGVGGPRARYDAFDIWGQGTLVTVSS
VL: QSVLTQPPSVSGAPGQRVTISCTGTYSNIGAGYDVHWYQQLPGRAPKLLIYGNRNRPSGVPDRFSGSKSGTSASLAITGLQAEDEADYYCQSHDSSLSGSVFGGGTKVTVL
B1 showed an EC50 of 0.8 µg/mL.

B2: SA-15 (antibody, V domains shown)
VH: QVQLVQSGGGVVQPGRSLRLSCAASGFSFSTYDMNWVRQAPGKGLEWLSIISYDETNKYYADSVKGRFTISRDNSKNTLFLQMNSLKPEDSAVYHCVKVGWTLVGDGVDMWGQGTLVTVSS
VL: QPVLTQSPSSLSASVGDRVTISCRASQGISHYLAWYQQQPGKVPKLLIYAASTLQSGVPSRFSGSGSGTDFTLTISSLQPEDVATYYCQKYNGAPFTFGPGTKVDIK
With B2 the EC50 was 1.5 µg/mL.

B3: SA-17 (antibody, V domains shown)
VH: QVQLVQSGGAVVQPGGSLRLSCVASGFTFDDYAMHWVRQAPGKGLEWVSLITLDGGRTYYADSVKGRFTISRDNSKNSLYLQMNRLRADDTGFYYCARDIKIGEAVMITVPGQHWGQGTLVTVSS
VL: QSVVTQDPGVSVALGQTVFITCQGDTLRSNYANWFQQKPGQAPVLVMYGKNNRPSGIPDRFSGSSSGNTASLTITGAQAEDEADYYCNSRDSSGNHVVFGGGTRVTVL
For B3, the EC50 was 0.3 µg/mL.

— patent US20200010536A1
